Test results published in the DeepSol protein solubility set.

assay: soluble on expression in E. coli; label from the status in PepcDB or PDB records

Sequence | soluble on expression in E. coli
ERIQQFYFEVKNKDKFEALCRIIDVEEPETTIIFCRTKRGVDELVESMQFRGYNVEGMHGDMSQNQRINTLKKFKENNIDFLVATDVAARGIDVHNVSHVINYDIPQDMESYVHRIGRTGRANAEGIAYSLVTPREYVMIKQIEKFTKSKIRRKEIPTIDDIFETKYNTLTDKITKNIEKDDFKKYIPFVQKLDDEFNLVDVSAALVKMIFDKEMGFDYSDDDKLKSDESVR | not soluble
ESVKGAQTDLTSLTDESQEKTLENGSPSSKIAVLEVSGTIQDNGDSSSLLGADGYNHRTFLKNLERAKDDKTVKGIVLKVNSPGGGVYESAEIHKKLEEIKKETKKPIYVSMGSMAASGGYYISTAADKIFATPETLTGSLGVIMESVNYSKLADKLGISFETIKSGAHKDIMSPSREMTKEEKNIMQSMVDNSYEGFVDVISKGRGMPKAEVKKIADGRVYDGRQAKKLNLVDELGFYDDTITAMKKDHKDLKNASVISYEESFGLGSLFSMGANKMFKSEIDFLNMREILSQSGS | not soluble
ETGDIVETATGAGSFTTLLTAAEAAGLVDTLKGDGPFTVFAPTDAAFAALPEGTVEDLLKPENKEKLTEILTYHVVPGEVMSSDLTEGMTAETVEGGALTVTLEGGPKVNGVSISQPDVDASNGVIHVIDGVLMPGA | soluble
ETMVGSFRDTTDKWLSQRLAADIYIYPTNNSAGRMSAWLQDQPEVESVWWRWEKDVPTEHGALQVVSTGPSEGELDSLTVKLGVPNYWYQLHQTKSLMVSESMALKLDIRPGDYIDLQAPLGEGWQVVGVYYDYGNPYNQVMMSHRN | not soluble
EVKLQESGAGLVQPSQSLSLTCSVTGYSITSGYYWNWIRLFPGNKLEWVGYISNVGDNNYNPSLKDRLSITRDTSKNQFFLKLNSVTTEDTATYYCARSEYYSVTGYAMDYWGQGTTVTVSSAWRHP | soluble
FEPMMQRDKIMQNLSYISDVNVLPDWMTVSQLLSYTEGVHPGFNRSKADALLRQTDIKPRAKIRALSKGMKVQLHLAIVIATNTQILILDEPTLGLDLVYRDTFYRHLLEWFHDGERVLIITSHEVSEIEHLLTDVLILKHGRPVLQTSMESISEDYFILDANDEHRAQIEAMHPLSSQKGLGTTKWLLSSQYADQAAGLGDVHGVKLADLFLALQKEAA | not soluble
FGKVGYATNLTYTANRNKIMKMVHDYKNPSDGSLFSITELTLQDKGGVYLREKDAIGDVYVKGILARGKDGKLIEEEGGYKVDRSQRIKIGSVNPDFSIGWRHNVTWNNITLDLLFNGRFGGIVTSSTQAFLDDYGVSKDTYKARQNGGVWVNGTQYDAEKYYTTIGGEQLMAYYAYKATNIRLQEASLSYTLPGKWFGNVINRLTVSAIGRNLWMIYNKAPFDPEMTSSTGTYNRGDVFMPPSLRSVGFSVKIEL | not soluble
FLILGTLFSSSLYADIDNAPLHALAKHQGFFFFFSSSCPHCQRFAPTLKRLSQHYGFSVVAISVDGGFLPSFPDAVMNEGQTKVFQVSVYPSLFLINPKSQVASLVTEGTIDEGELTNRLLKI | not soluble
FLKGGFDPKMNSKEALQILNLTENTLTKKKLKEVHRKIMLANHPDKGGSPFLATKINEAKDFLEKRGISK | not soluble
FMQEPEAIETALHRLSDHDLIVIQVLDPTEKVLPLQGNSKLVDLETGEEIRTYISDNFKERYTRKLDDHSARIKKTCMKVGAEFYTFTTDTPVFNAFYNTIRRRRR | not soluble
FNRRFILPELREAVRSVSADIVFLQEVHGEHHSHARRVKDWPTISQYEFLADSMWSDFAYGRNAVYPDGDHGNALLSKYPIIQHENLDVSIDGTEQRGLLHCILQVPDHGQVHAVCVHLGLFESHRRQQLKLLAQLMDRLPEGAPVIVAGDFNDWRQRADALLQGTGLHEVFVQRFGAPAKSFPARWPLLRLDRIYVRNATSHRPKVLSSRPWSHLSDHAPLAVEVTL | not soluble
FPRVSQELKTALSTLQQTFVVSDATQPHCPIVYASSGFFTMTGYSSKEIVGRNCRFLQGPDTDKNEVAKIRDCVKNGKSYCGRLLNYKKDGTPFWNLLTVTPIKDDQGNTIKFIGMQVEVSKYTEGVNDK | soluble
FSNNNFVYTDGTHFALNGKSLYINGFNAYWLMYIAYDPSTRIKVTNTFQQASKYKMNVARTWAFSHGGSRPLQSAPGVYNEQMFQGLDFVISEAKKYGIHLIMSLVNNWDAFGGKKQYVEWAVQRGQKLTSDDDFFTNPMVKGFYKNNVKVVLTRVNTITKVAYKDDPTILSWELINEPRCPSDLSGKTFQNWVLEMAGYLKSIDSNHLLEIGLEGFYGNDMRQYNPNSYIFGTNFISNNQVQGIDFTTIHMYPNQWLPGLTQEAQDKWASQWIQVHIDDSKMLKKPLLIAEFGKSTKTPGYTVAKRDNYFEKIYGTIFNCAKSGGPCGGGLFWQVLGQGMSSFDDGYQVVLQESPSTSRVILLQSLRLSKLS | soluble
FTLVCITAASRHHWGTEVDIFDPDLLPRGQSLQLEPWEYEKGGYFFELSEFLAENLPHFDFALPFMNMQSNKKVGREPWHISYLPL | not soluble
GAMDPEFMSTPLPAIVPAARKATAAVIFLHGLGDTGHGWAEAFAGIRSSHIKYICPHAPVRPVTLNMNVAMPSWFDIIGLSPDSQEDESGIKQAAENIKALIDQEVKNGIPSNRIILGGFSQGGALSLYTALTTQQKLAGVTALSCWLPLRASFPQGPIGGANRDISILQCHGDCDPLVPLMFGSLTVEKLKTLVNPANVTFKTYEGMMHSSCQQEMMDVKQFIDKLLPPID | soluble
GDAFVGTWKLVSSENFDDYMKEVGVGFATRKDAGMAKPNMIISVNGDLVTIRSESTHKNTEISFKLGVEFDEITADDRKVKSIITLDGGALVQVQKWDGKSTTIKRKRDGDKLVVECVMKGVTSTRVYERA | soluble

Sequence | soluble on expression in E. coli
GDNDAIYYPVGDVDIERGGPALEVGEEDVLVARSFNEEDYVLDTIAQYPNDPTLGKLTFMIDLKNQQKDQNVADFNGVGKSKLTMSLGYKDGNYPSESQVPIYTSQDVTAKYAVKLRLKGELLVSGDEWMIDYVYAQLASLFQPYPPANFPEVFMCKGGMKLGTFDSFRRTCTFDITYDRSDLSFSQLYFNLFINLAGQKRENRVRLRIDKESYFELYEQSEEM | soluble
GEADSGDGDSSEYQDGKEFGIGDLVWGKIKGFSWWPAMVVSWKATSKRQAMSGMRWVQWFGDGKFSEVSADKLVALGLFSQHFNLATFNKLVSYRKAMYHALEKARVRAGKTFPSSPGDSLEDQLKPMLEWAHGGFKPTGIEGLKPNNTQP | soluble
GEFLISILEAIEPEVVYAGYDNSQPDTTNYLLSSLNRLAGKQMVSVVKWAKALPGFRNLHLDDQMTLIQYSWMSLMAFSLGWRSYKHTNGQMLYFAPDLIFNEERMQQSAMYDLCQGMRQISQEFVRLQVTYEEFLCMKVLLLLSTVPKDGLKSQASFDEMRMNYIKELRRAIAKKENNSSQNWQRFYQLTKLLDSMHDLVGGLLQFCFYTFVQSQALSVEFPEMLVEIISDQLPKVMAGMAKPLLFHKK | soluble
GEMDERLLQKYRAQVFEWGGCFDKMFEALKSLIYLSEFENSEFDDEERHLLTLCIKHKISDYRTMTSQVLQEQTKQLNNDELVKICSEYVFSLRKDIKAFLQSFEDCVDRLVEKSFFSKFFKLKVKSDISRYKLEFGLCSLEDSKKIHQDAFTLLCEHPDKIEQLPLGFIQNLAYILSEKYGEKKQVFNMLNSLGKILELQIKEQENMDRKAQITVYLQGIKDYIEK | soluble
GFGCPGNQLKCNNHCKSISCRAGYCDAATLWLRCTCTDCNGKK | soluble
GFIDTHVHSGHRALHKLLADGGRPDLFGQPYMDVTIARDGTRIKGYPNYLSREEAAVDPGIALHAAFTVAELLRNGVTTFVELGGHVMVQEALWRECERLGVRGYLGAGYDSGRWAADDQGRLRRVPYPDGGDHLFEEAVAFIKRVQAAGNDLVNGILVPREVENCSVDILRRTVQAAQELGVPMATHAGYNVIEFYETVREHRMTPIELLHSVGMLGPRLNIGHANLISDSPRLNYSGGRDLALMGEHRVSISHCPINIVRRARVLDSWKKYREAGVNLTIGSDTYPRDMVMNMRTASYHGKVMSHDLTAASAAEVFEAATLGGARSLGRTDI | not soluble
GFLSHLDIVSTFNDHLAQRHDLDPYTVTLTVREGGEVVYIGCRNSAQPLGHTFRIGMRLPAPFTATGKILLSDLGPGELRMLFSQFPQPLTSRSVAGLSQLEEELALTRARGYSIDDGQIREGMLCIGAAIRDYSGAASAGIAISLIRSEASDEKIASLGEELRTTANALSEKLGYRSQKD | soluble
GFPSPAADYVEQRIDLNQLLIQHPSATYFVKASGDSMIDGGISDGDLLIVDSAITASHGDIVIAAVDGEFTVKKLQLRPTVQLIPMNSAYSPITISSEDTLDVFGVVIHVVKAATR | soluble
GGVDRWPEYYPETGRDIWIDSVMRQEYLWYRDMPSPAAPDYFQKPEAFLKKAVASMDNGFSKIDSLLDEPIPSYGFDYTLYKVLDNDTAYNALISYVVPGSPAEEAGLQRGHWIMMMNGDYITKKVESELLQGSTRQLQIGVYKEVVGEDGEVTGGVVPIGETTMPASRSLVDKPVHRFEIIPWNGKKVGYLMYNEFKAGPTTDSQAYNDDLRRAFRDFQTGGVNEFVLDLRYNTGGSLDCAQLLCTMLAPADKMNQLLALLRYSDKRVEANQDLTFNPELIQSGANLNLSTVYVLTTNATRGAAEMVINCLNPYMKVVLIGTKTAGEYVATKPFVHPTDRFILNLVVCNVYNAEEKSDYATGFKPTYEYNEDSYLSTYLPFGNTNETLLNAALKIMSGITDK | soluble
GHMASGLTIYFKKPDSWGTPHLYYYDTNPKVDEPTWSEAPEMEHYEGDWYTHTIEGVESVRLLFKDRGTNQWPGPGEPGFFRDQDGWFDGEWHVDRPG | soluble
GHMEDFWVQYGDEMLPVIGDFPRKGDYLPSFMLVDDQKHDAALESFSHTPKLIVTLLSVDEDEHAGLLLLRETRRFLDSWPHLKLIVITVDSPSSLARARHEHGLPNIALLSTLRGRDFHKRYGVLITEYPLSGYTSPAIILADAANVVHYSERLANTRDFFDFDAIEKLLQEGEQQAMAAEREAAEARQEQDAEREKGTERLLEKAKLIQDQLNRNGDPGRGS | soluble
GHMGLEPYEISTLFEQRQAMLQSIKEGVVAVDDRGEVTLINDAAQELLNYRKSQDDEKLSTLSHSWSQVVDVSEVLRDGTPRRDEEITIKDRLLLINTVPVRSNGVIIGAISTFRDKT | soluble
GHMQTQGLAKDAWEIPRESLRLEVKLGQGCFGEVWMGTWNGTTRVAIKTLKPGTMSPEAFLQEAQVMKKLRHEKLVQLYAVVSEEPIYIVTEYMSKGCLLDFLKGEMGKYLRLPQLVDMAAQIASGMAYVERMNYVHRDLRAANILVGENLVCKVADFGLARLIEDNEYTARQGAKFPIKWTAPEAALYGRFTIKSDVWSFGILLTELTTKGRVPYPGMVNREVLDQVERGYRMPCPPECPESLHDLMCQCWRKDPEERPTFEYLQAFLEDYFTSTEPQYQPGENL | soluble
GHPTLKTPESVTGTWKGDVKIQCIYDPLRGYRQVLVKWLVRHGSDSVTIFLRDSTGDHIQQAKYRGRLKVSHKVPGDVSLQINTLQMDDRNHYTCEVTWQTPDGNQVIRDKIIELRVRK | soluble
GHVETIKNTFLNPKSNKVLVVAHRGNWRSAPENSTAAIDSAIAMKVDIVEIDIQKTKDGQLILMHDNTLDRTTTGKGEIKNWTLADIKKLKLKDKDGKVTNYVVPTLEEALLTAKGKIMVNLDKAYDIFDDVYAILEKTETQNQVIMKGGQPIETVKREFGSYLDKVLYMPVIDLGNKEAEKIITDYLKELRPAAFEIIYSDPKNPLPPKIKQLLFKKSLIWYNTLWGSLAGNHDDNLALTDPEKSYGYLIEQLGARILQTDQPAYLLDYLRKKGWHN | soluble
